Experimental findings from IntAct's records for PubMed 16648845 are described below.

Sequences and labels used below:
B1: Serine/threonine-protein kinase Nek2 (Homo sapiens), P51955 (parent)
chain: MPSRAEDYEVLYTIGTGSYGRCQKIRRKSDGKILVWKELDYGSMTEAEKQMLVSEVNLLRELKHPNIVRYYDRIIDRTNTTLYIVMEYCEGGDLASVITKGTKERQYLDEEFVLRVMTQLTLALKECHRRSDGGHTVLHRDLKPANVFLDGKQNVKLGDFGLARILNHDTSFAKTFVGTPYYMSPEQMNRMSYNEKSDIWSLGCLLYELCALMPPFTAFSQKELAGKIREGKFRRIPYRYSDELNEIITRMLNLKDYHRPSVEEILENPLIADLVADEQRRNLERRGRQLGEPEKSQDSSPVLSELKLKEIQLQERERALKAREERLEQKEQELCVRERLAEDKLARAENLLKNYSLLKERKFLSLASNPELLNLPSSVIKKKVHFSGESKENIMRSENSESQLTSKSKCKDLKKRLHAAQLRAQALSDIEKNYQLKSRQILGMR

This assay covers variants of B1. The note with it: with cdc27_human CDC27, P30260.
cdc27_human CDC27, P30260, sequence (P30260 whole entry): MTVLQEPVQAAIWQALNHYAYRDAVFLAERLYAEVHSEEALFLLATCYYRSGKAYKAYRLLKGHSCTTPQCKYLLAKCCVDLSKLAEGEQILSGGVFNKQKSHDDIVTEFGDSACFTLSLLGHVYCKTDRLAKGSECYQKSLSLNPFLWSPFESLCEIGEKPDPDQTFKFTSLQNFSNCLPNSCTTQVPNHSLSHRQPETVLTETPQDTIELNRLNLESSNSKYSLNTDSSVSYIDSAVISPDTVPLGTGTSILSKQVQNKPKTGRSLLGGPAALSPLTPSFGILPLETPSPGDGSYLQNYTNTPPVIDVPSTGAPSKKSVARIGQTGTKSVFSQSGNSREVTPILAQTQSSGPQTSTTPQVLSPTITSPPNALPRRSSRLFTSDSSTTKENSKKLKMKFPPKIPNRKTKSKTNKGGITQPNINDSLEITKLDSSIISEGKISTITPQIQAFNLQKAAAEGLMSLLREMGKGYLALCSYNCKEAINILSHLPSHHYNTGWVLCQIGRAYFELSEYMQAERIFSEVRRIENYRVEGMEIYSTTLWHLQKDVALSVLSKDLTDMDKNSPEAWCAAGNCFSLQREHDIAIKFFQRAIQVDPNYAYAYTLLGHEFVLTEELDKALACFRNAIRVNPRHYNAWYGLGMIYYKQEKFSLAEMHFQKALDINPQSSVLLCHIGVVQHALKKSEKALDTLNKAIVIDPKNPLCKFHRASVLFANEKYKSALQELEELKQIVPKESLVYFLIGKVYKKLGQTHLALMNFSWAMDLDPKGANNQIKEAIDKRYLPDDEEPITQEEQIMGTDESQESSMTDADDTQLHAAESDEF
As for K391A;E392A;N393A;N399A, the “effect of a mutation on the interaction” value is reported as “decreasing interaction”.
